We go through one molecule from article PMC3680417, “Phosphorylation of the Leukemic Oncoprotein EVI1 on Serine 196 Modulates DNA Binding, Transcriptional Repression and Transforming Ability”.

The target of data set [1] is GST-Evi1 ZF1-7 S196A (mouse, UniProt P14404-1 21-239, S196A). Put plainly: EMSA; EMSA as in cited ref. 6; native 5% acrylamide gel; buffer, salt, pH and temperature not stated. The conditions noted are these: protein: recombinant; tags: GST (N-terminal, pGEX); label: 5' IRDye. For orientation: In EMSA bound probe runs differently from free probe, usually more slowly.
Sequence of GST-Evi1 ZF1-7 S196A (P14404 211-429 S386A): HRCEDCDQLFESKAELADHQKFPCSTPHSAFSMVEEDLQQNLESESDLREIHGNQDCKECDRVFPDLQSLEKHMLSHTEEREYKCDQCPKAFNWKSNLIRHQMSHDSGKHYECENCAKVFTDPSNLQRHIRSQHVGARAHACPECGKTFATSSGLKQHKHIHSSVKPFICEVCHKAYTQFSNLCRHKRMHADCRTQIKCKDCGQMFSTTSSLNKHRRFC
In data set [2] the target is GST-Evi1 ZF1-7 WT (mouse, UniProt P14404-1 21-239). The description is as above. The conditions noted are these: protein: recombinant; tags: GST (N-terminal, pGEX); label: 5' IRDye.
Sequence of GST-Evi1 ZF1-7 WT (P14404 211-429): as the sequence (P14404 211-429 S386A) above, with A176S counted along it

B1: EVI1 ZF1-7 target EMSA probe (dsDNA)
DNA 1: ACCCATGGAGCTTTGAGCCCTGTTATCTTGTCAGGGAAGTGTACCATGGA
DNA 2: TCCATGGTACACTTCCCTGACAAGATAACAGGGCTCAAAGCTCCATGGGT
Take B1: the binding result in data set [1] and in data set [2] was “binds” each time.
